T1: chimeric human/cynomolgus monkey CD89-I (human/cynomolgus monkey chimera, UniProt P24071 22-287)
T1 construct: also called ΔGln22-Lys46 human EC1-CD89; I (22-46)
T1 chain: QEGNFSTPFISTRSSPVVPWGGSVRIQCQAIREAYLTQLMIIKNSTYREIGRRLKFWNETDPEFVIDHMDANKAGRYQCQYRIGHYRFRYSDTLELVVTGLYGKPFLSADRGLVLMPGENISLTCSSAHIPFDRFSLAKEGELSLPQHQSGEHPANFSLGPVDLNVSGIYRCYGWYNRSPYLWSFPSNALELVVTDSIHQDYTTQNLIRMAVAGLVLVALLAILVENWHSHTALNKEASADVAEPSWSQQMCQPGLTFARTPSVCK

T2: chimeric human/cynomolgus monkey CD89-IV (human/cynomolgus monkey chimera, UniProt P24071 22-287)
T2 construct: also called ΔArg97-Gly121 human EC1-CD89
T2 chain: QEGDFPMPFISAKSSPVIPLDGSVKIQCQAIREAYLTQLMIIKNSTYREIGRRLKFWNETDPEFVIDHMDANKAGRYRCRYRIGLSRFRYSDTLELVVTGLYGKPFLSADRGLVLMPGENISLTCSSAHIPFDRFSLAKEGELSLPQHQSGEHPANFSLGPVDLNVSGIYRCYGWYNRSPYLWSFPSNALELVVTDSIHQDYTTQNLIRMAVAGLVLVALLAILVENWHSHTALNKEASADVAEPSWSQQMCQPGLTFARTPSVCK

T3: chimeric bovine EC1-Fcγ2R/human EC2-CD89 (bovine/human chimera)
T3 chain: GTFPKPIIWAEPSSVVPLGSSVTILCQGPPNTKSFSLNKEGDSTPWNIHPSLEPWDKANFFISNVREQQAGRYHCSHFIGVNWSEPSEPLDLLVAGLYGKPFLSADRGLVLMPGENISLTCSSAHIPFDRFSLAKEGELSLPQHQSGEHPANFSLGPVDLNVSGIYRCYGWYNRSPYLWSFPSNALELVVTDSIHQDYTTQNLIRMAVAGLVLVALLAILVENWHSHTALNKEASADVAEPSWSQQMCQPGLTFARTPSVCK

T4: chimeric human/cynomolgus monkey CD89-hotspots (human/cynomolgus monkey chimera, UniProt P24071 22-287)
T4 construct: also called ΔThr58, Gln59; ΔArg73, Arg74, Lys76
T4 chain: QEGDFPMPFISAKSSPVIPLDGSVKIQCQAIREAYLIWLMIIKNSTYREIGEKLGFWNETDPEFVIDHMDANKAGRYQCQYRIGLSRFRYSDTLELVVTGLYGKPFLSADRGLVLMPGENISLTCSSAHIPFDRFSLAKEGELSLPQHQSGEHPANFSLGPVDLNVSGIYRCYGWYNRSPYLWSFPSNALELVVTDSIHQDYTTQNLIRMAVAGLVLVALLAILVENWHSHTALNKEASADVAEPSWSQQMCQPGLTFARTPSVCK

T5: membrane full-length cynomolgus monkey CD89 (cynomolgus monkey)
T5 construct: also called cynoCD89; cynomolgus EC1-CD89
T5 chain: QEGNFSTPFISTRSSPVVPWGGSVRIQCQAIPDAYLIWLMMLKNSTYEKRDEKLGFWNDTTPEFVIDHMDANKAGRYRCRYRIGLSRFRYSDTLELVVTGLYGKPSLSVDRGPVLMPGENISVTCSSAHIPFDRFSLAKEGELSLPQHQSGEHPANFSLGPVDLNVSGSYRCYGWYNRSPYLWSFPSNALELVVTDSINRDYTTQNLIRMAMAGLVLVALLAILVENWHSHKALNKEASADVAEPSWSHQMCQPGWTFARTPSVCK


Tests used:
[1] = target: T1, chimeric human/cynomolgus monkey CD89-I; test: FACS, transiently transfected HEK293F, 10 ug/mL; ++ strong, + intermediate, -/+ weak
Description: (§1) After 48 hours, the binding of CD89/IgA blocking mouse anti-human CD89 antibodies to aforementioned chimeric human CD89/cynomolgus monkey CD89 constructs on transfected cells was analyzed by FACS analysis. To this end, transient transfected HEK293F cells were put at 10×10⁶ cells/mL in ice-chilled phosphate-buffered saline containing 0.1% BSA (Sigma)/0.05% NaN₃ (PBS/BSA/NaN₃) supplemented with 50 μg/mL human IgGs (blocking Fcγ receptors; Sigma) for 10 minutes at 4° C. Then, 10 μL/tube (ie, 0.1×10⁶ cells) of these cells were incubated with or without 100 μL purified mouse anti-human CD89 antibody at 10 μg/mL (in PBS/BSA/NaN₃) for 30 minutes at 4° C. […] After extensive washing in PBS/BSA/NaN₃, cells were subsequently incubated with 1:200 diluted PE-conjugated goat anti-mouse IgG Fey-specific antibodies (Jackson ImmunoResearch) for 30 minutes at 4° C. After extensive washing in PBS/BSA/NaN₃, cells were fixed in 2% formaldehyde in PBS/BSA/NaN₃ for 30 minutes at 4° C.

[2] = target: T2, chimeric human/cynomolgus monkey CD89-IV; test: as above
Description: as §1

[3] = target: T6, membrane-bound full-length human CD89 (human, UniProt P24071 22-287); test: FACS, HEK293F-huCD89, unlabeled Ab 10 ug/mL first; competitor MIP8a-PE
T6 construct: on stably or transiently transfected HEK293F cells; also called FcalphaRI; huCD89
Description: Then, 10 μL/tube (ie, 0.1×10⁶ cells) of these cells were incubated with or without 100 μL purified mouse anti-human CD89 antibody at 10 μg/mL (in PBS/BSA/NaN₃) for 30 minutes at 4° C. […] After extensive washing in PBS/BSA/NaN₃, cells were fixed in 2% formaldehyde in PBS/BSA/NaN₃ for 30 minutes at 4° C.

[4] = target: T3, chimeric bovine EC1-Fcγ2R/human EC2-CD89; test: FACS, transiently transfected HEK293F
Description: After 48 hours and/or 72 hours, the binding of CD89/IgA blocking mouse anti-human CD89 antibodies to aforementioned chimeric human/bovine receptors on transfected cells was analyzed by FACS analysis. To this end, transient transfected HEK293F cells were put at 10×10⁶ cells/mL in ice-chilled phosphate-buffered saline containing 0.1% BSA (Sigma)/0.05% NaN₃ (PBS/BSA/NaN₃) supplemented with 50 μg/mL human IgGs (blocking Fcγ receptors; Sigma) for 10 minutes at 4° C. Then, 10 μL/tube (ie, 0.1×10⁶ cells) of these cells were incubated with or without 100 μL purified mouse anti-human CD89 antibody at 10 μg/mL (in PBS/BSA/NaN₃) for 30 minutes at 4° C. […] After extensive washing in PBS/BSA/NaN₃, cells were subsequently incubated with 1:200 diluted PE-conjugated goat anti-mouse IgG Fey-specific antibodies (Jackson ImmunoResearch) for 30 minutes at 4° C. After extensive washing in PBS/BSA/NaN₃, cells were fixed in 2% formaldehyde in PBS/BSA/NaN₃ for 30 minutes at 4° C.

[5] = target: T6, membrane-bound full-length human CD89; test: FACS, HEK293F-huCD89, 24 h 37C no NaN3, Ab 10 ug/mL then IgA; competitor heat-aggr serum IgA
Description: (§2) After extensive washing in PBS/BSA/NaN₃, 1:200 diluted PE-conjugated streptavidin (Jackson ImmunoResearch) was added, and incubated for 30 minutes at 4° C. After extensive washing in PBS/BSA/NaN₃, cells were fixed in 2% formaldehyde in PBS/BSA/NaN₃ for 30 minutes at 4° C.

[6] = target: T6, membrane-bound full-length human CD89; test: FACS, HEK293F-huCD89, 4C +NaN3, Ab 10 ug/mL then IgA; competitor non-aggr serum IgA
Description: Then, 10 μL/tube (ie, 0.1×10⁶ cells) of these cells were incubated with or without 50 μL purified mouse anti-human CD89 antibody at 20 μg/mL (in PBS/BSA/NaN₃) for 30 minutes at 4° C. […] After extensive washing in PBS/BSA/NaN₃, 1:200 diluted PE-conjugated streptavidin (Jackson ImmunoResearch) was added, and incubated for 30 minutes at 4° C. After extensive washing in PBS/BSA/NaN₃, cells were fixed in 2% formaldehyde in PBS/BSA/NaN₃ for 30 minutes at 4° C.

[7] = target: T6, membrane-bound full-length human CD89; test: FACS, HEK293F-huCD89, 24 h 37C no NaN3, IgA then Ab 10 ug/mL; pre-bound non-aggr serum IgA
Description: as §2

[8] = target: T4, chimeric human/cynomolgus monkey …; test: FACS, transiently transfected HEK293F; - = no binding
Description: as §1

[9] = target: T5, membrane full-length cynomolgus monkey …; test: as above
Description: as §1

[10] = target: T7, recombinant C-terminal polyhistidine-tagged human (extracellular) CD89 (human, UniProt P24071 22-227); test: ELISA, coated rhuCD89, half-maximum binding
T7 construct: extracellular domain; bought (Sino Biological); also called rhuCD89
Description: After extensive washing with PBS/0.05% Tween 20, plates were blocked with PBS/0.05% Tween 20/1% BSA (Roche) for 1 hour at RT. Subsequently, plates were incubated with 50 μL titrated (in block buffer) purified mouse anti-human CD89 antibody/well for 1 hour at RT. […] After extensive washing in PBS/0.05% Tween 20, binding of antibodies on rhuCD89 was determined with 1:5,000 diluted horseradish peroxidase (HRP)-conjugated goat anti-mouse IgG Fey-specific antibodies (Jackson ImmunoResearch) for 1 hour at RT, followed by a ready-to-use solution of TMB substrate (Invitrogen) for colorimetric detection.
After extensive washing with PBS/0.05% Tween 20, plates were blocked with PBS/0.05% Tween 20/1% BSA (Roche) for 1 hour at RT. Subsequently, plates were incubated with and without 50 μL titrated (in block buffer) purified chimeric mouse/human anti-human CD89 antibody/well for 1 hour at RT. After extensive washing in PBS/0.05% Tween 20, binding of antibodies on rhuCD89 was determined with 1:5,000 diluted horseradish peroxidase (HRP)-conjugated goat anti-human IgG Fey-specific antibodies (Jackson ImmunoResearch) for 1 hour at RT, followed by a ready-to-use solution of TMB substrate (Invitrogen) for colorimetric detection.

[11] = target: T6, membrane-bound full-length human CD89; test: FACS, HEK293F-huCD89, 24 h 37C no NaN3, Ab 10 ug/mL then IgA; competitor non-aggr serum IgA
Description: as §2

[12] = target: T6, membrane-bound full-length human CD89; test: FACS, HEK293F-huCD89, 4C +NaN3, Ab 10 ug/mL then IgA; competitor heat-aggr serum IgA
Description: To mimic human IgA immune complexes, human (serum-derived) IgA (Bethyl Laboratories) was heated at 63° C. for 30 minutes, and cooled down to RT followed by centrifugation at 4° C. 12000×g for 2 minutes to remove any insoluble protein precipitation.
Then, 10 μL/tube (ie, 0.1×10⁶ cells) of these cells were incubated with or without 50 μL purified mouse anti-human CD89 antibody at 20 μg/mL (in PBS/BSA/NaN₃) for 30 minutes at 4° C.

[13] = target: T6, membrane-bound full-length human CD89; test: FACS, HEK293F-huCD89, 24 h 37C no NaN3, IgA then Ab 10 ug/mL; pre-bound heat-aggr serum IgA
Description: as §2

[14] = target: T6, membrane-bound full-length human CD89; test: FACS, HEK293F-huCD89, half-maximum binding
Description: Then, 10 μL/tube (ie, 0.1×10⁶ cells) of these cells were incubated with or without 100 μL titrated (in PBS/BSA/NaN₃) purified chimeric mouse/human anti-human CD89 antibody/tube for 30 minutes at 4° C. […] After extensive washing in PBS/BSA/NaN₃, cells were subsequently incubated with 1:200 diluted PE-conjugated goat anti-human IgG Fey-specific antibodies (Jackson ImmunoResearch) for 30 minutes at 4° C. After extensive washing in PBS/BSA/NaN₃, cells were fixed in 2% formaldehyde in PBS/BSA/NaN₃ for 30 minutes at 4° C.

binding result [1]	binding result [2]	% blocking of MIP8a-PE binding [3] [%]	binding result [4]	percent IgA binding (remaining) [5] [%]	percent IgA binding [6] [%]	percent IgA binding (remaining) [7] [%]	binding result [8]	binding result [9]	EC50 [10] [µg/mL]	percent IgA binding (remaining) [11] [%]	percent IgA binding [12] [%]	percent IgA binding (remaining) [13] [%]	EC50 [14] [µg/mL]	Binder
binds	binds	< 25	no binding (tested: 10 µg/mL)	0 to 25	0 to 25	0 to 25	no binding (tested: 10 µg/mL)	no binding (tested: 10 µg/mL)	0.052	0 to 25	0 to 25	0 to 25	0.714	mouse anti-human CD89-specific antibody 8F3 (antibody, mouse IgG1, V domains shown) VH: EVQLVESGGGLVKPGGSLKLSCAASGFTFSNYGMSWVRQTPDKRLEWVATMHSGGTYTYYPDNVKGRFTISRDNAKNNLYLQMSSLRSEDTAMYYCARETGLYDGLFDFWGQGTTLTVSS VL: DVQITQSPSYLAASPGETITINCRASKTISKYLAWYQEKPGKTNMLLIYSGSTLQSGVPSRFSGSGSGTDFTLTISSLEPEDLAMYYCQQHDEYPWTFGGGTKLEIK
binds	binds	< 25	no binding (tested: 10 µg/mL)	26 to 50	0 to 25	0 to 25		no binding (tested: 10 µg/mL)	0.013	0 to 25	0 to 25	26 to 50	0.26	mouse anti-human CD89-specific antibody 20B4 (antibody, mouse IgG1, V domains shown) VH: QVQLKESGPGLVAPSQSLSITCTVSGFSLTSYGVHWVRQPPGKGLEWLGIIWAGGSTSYNSALMSRLSISKDNSKSQVFLKMNSLQTDDTAMYYCARDHYDLFAYWGQGTLVTVSA VL: DILMTQSPSSMSVSLGDTVSITCHASQDISRNIGWLQQKPGKSFKGLIYHGTNLEDGVPSRFSGSGSGADYSLTISSLESEDFADYYCVQYAQFPRTFGGGTKLEIK
binds	binds	< 25	no binding (tested: 10 µg/mL)	0 to 25	0 to 25	0 to 25	no binding (tested: 10 µg/mL)	no binding (tested: 10 µg/mL)	0.02	0 to 25	0 to 25	0 to 25	0.637	mouse anti-human CD89-specific antibody 10E7 (antibody, mouse IgG1, V domains shown) VH: EVQLVESGGGLVQPGGSLKLSCAASGLTFSSYGMSWVRQTPDKRLELVATINGNGDITYYPDSVKGRFTISRDNAKNTLYLQMSSLKSEDTAMYYCARDYDYDYAMDYWGQGTSVTVSS VL: DIQMTQSTSSLSASLGDSVTISCRASQDIINYLNWYQQKPDGTVKLLIYYTSRLHSGVPSRFSGSGSGTEYSLTVSNLEKEDIATYFCQQGKTLPYTFGGGTKLEIK
